B1: human cytosolic malate dehydrogenase, splice variant 3 (hMDH1V3) (enzyme, UniProt P40925-3 1-352, looked up)
chain: MGRRCSYFPKDVTVFDKDDKSEPIRVLVTGAAGQIAYSLLYSIGNGSVFGKDQPIILVLLDITPMMGVLDGVLMELQDCALPLLKDVIATDKEDVAFKDLDVAILVGSMPRREGMERKDLLKANVKIFKSQGAALDKYAKKSVKVIVVGNPANTNCLTASKSAPSIPKENFSCLTRLDHNRAKAQIALKLGVTANDVKNVIIWGNHSSTQYPDVNHAKVKLQGKEVGVYEALKDDSWLKGEFVTTVQQRGAAVIKARKLSSAMSAAKAICDHVRDIWFGTPEGEFVSMGVISDGNSYGVPDDLLYSFPVVIKNKTWKFVEGLPINDFSREKMDLTAKELTEEKESAFEFLSSA
B2: human mitochondrial malate dehydrogenase (hMDH2), wild type (enzyme, UniProt P40926-1 25-338, looked up)
chain: AKVAVLGASGGIGQPLSLLLKNSPLVSRLTLYDIAHTPGVAADLSHIETKAAVKGYLGPEQLPDCLKGCDVVVIPAGVPRKPGMTRDDLFNTNATIVATLTAACAQHCPEAMICVIANPVNSTIPITAEVFKKHGVYNPNKIFGVTTLDIVRANTFVAELKGLDPARVNVPVIGGHAGKTIIPLISQCTPKVDFPQDQLTALTGRIQEAGTEVVKAKAGAGSATLSMAYAGARFVFSLVDAMNGKEGVVECSFVKSQETECTYFSTPLLLGKKGIEKNLGIGKVSSFEEKMISDAIPELKASIKKGEDFVKTLK

Target: the molecule itself
Test: SAXS

Protein | stoichiometry N
B1 | 2
B2 | 2

Reference: doi:10.1101/2025.07.15.665002 (bioRxiv, 2025)
